Measured values published in patent US6448071.

Columns and labels:
[1] = target: unloaded H-2 L^d on RMA-S L^d cells (murine) (UniProt P01897); assay: direct flow cytometry on RMA-S L^d cells
[2] = target: tum^- loaded H-2 L^d (murine) (UniProt P01897); assay: direct flow cytometry on peptide-loaded RMA-S L^d cells
[3] = target: SL9 loaded H-2 L^d (murine) (UniProt P01897); assay: as above
[4] = target: SIY loaded H-2 K^b on T2 K^b cells (mouse) (UniProt P01901); assay: direct flow cytometry on peptide-loaded T2 K^b cells
SIY loaded H-2 K^b on T2 K^b cells (mouse), sequence (P01901 22-369): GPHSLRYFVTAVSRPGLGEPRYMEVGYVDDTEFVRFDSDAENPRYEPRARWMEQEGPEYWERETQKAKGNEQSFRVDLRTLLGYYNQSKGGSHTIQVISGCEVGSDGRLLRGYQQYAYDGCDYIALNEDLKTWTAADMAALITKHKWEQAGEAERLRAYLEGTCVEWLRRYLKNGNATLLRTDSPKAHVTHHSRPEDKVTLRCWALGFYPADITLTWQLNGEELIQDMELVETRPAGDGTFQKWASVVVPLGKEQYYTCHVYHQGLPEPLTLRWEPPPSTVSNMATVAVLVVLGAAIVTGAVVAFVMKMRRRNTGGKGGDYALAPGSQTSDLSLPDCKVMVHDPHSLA

[5] = target: pVSV loaded H-2 K^b on T2 K^b cells (mouse) (UniProt P01901); assay: as above
pVSV loaded H-2 K^b on T2 K^b cells (mouse), sequence (P01901 22-369): as above

[6] = target: SIY loaded H-2 K^bm3 on T2 K^bm3 cells (mouse); assay: direct flow cytometry on peptide-loaded T2 K^bm3 cells
[7] = target: p2Ca loaded H-2 L^d (murine) (UniProt P01897); assay: flow cytometry competition with constant FITC-30.5.7 Fab on peptide-loaded RMA-S L^d cells
p2Ca loaded H-2 L^d (murine), sequence (P01897 25-309): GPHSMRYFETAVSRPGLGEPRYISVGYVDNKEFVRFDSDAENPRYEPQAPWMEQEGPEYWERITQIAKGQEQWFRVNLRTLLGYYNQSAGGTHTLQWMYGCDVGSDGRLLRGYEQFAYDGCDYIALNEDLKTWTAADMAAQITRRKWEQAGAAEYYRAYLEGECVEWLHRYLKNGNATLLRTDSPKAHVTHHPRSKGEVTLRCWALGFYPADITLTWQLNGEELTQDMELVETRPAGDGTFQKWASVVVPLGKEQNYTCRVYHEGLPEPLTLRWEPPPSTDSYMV

[8] = target: p2Ca loaded H-2 L^d (murine) (UniProt P01897); assay: flow cytometry, direct saturation of FITC-30.5.7 Fab on peptide-loaded RMA-S L^d cells
[9] = target: SL9 loaded H-2 L^d (murine) (UniProt P01897); assay: as above
[10] = target: QL9 loaded H-2 L^d (murine) (UniProt P01897); assay: as above
QL9 loaded H-2 L^d (murine), sequence (P01897 25-309): as above

[11] = target: pMCMV loaded H-2 L^d (murine) (UniProt P01897)
pMCMV loaded H-2 L^d (murine), sequence (P01897 25-309): as above

[12] = target: H-2 L^d naturally loaded with endogenous peptides on cells (RENCA; MC57G L^d) (murine) (UniProt P01897); assay: direct flow cytometry on RENCA cells
H-2 L^d naturally loaded with endogenous peptides on cells (RENCA; MC57G L^d) (murine), sequence (P01897 25-362): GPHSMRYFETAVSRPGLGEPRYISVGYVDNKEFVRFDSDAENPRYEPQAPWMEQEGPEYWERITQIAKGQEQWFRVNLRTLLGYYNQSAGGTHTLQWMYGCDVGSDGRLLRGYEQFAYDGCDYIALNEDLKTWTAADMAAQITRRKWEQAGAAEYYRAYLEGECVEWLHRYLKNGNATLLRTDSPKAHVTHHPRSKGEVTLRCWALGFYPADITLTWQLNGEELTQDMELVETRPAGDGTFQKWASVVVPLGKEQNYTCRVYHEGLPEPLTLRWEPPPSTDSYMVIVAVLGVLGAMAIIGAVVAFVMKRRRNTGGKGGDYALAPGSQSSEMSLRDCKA

[13] = target: unloaded H-2 L^d on RMA-S L^d cells (murine) (UniProt P01897); assay: direct flow cytometry on RMA-S L^d cells without added peptide

soluble divalent 2C TcR/Ig, sequence (A2KF29 whole entry, looked up, tested part not stated): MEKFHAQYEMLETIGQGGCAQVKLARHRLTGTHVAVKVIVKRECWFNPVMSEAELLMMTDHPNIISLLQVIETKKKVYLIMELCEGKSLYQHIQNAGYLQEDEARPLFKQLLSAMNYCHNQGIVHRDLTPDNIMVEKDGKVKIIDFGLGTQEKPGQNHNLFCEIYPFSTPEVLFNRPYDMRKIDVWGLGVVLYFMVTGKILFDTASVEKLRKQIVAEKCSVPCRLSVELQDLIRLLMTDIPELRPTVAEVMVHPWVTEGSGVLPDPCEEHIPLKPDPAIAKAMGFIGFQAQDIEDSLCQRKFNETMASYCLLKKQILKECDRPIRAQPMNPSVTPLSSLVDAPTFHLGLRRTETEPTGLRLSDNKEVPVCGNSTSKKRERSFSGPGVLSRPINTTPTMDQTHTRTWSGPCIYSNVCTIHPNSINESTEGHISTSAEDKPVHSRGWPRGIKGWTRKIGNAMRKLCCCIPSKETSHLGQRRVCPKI
unloaded H-2 L^d on RMA-S L^d cells (murine), sequence (P01897 25-309): as the sequence (P01897 25-309) above
SL9 loaded H-2 L^d (murine), sequence (P01897 25-309): as above
tum^- loaded H-2 L^d (murine), sequence (P01897 25-309): as above

Substance: soluble divalent 2C TcR/Ig (from UniProt A2KF29)
- MCF [1]: 10 MCF
- MCF [2]: 10 MCF
- MCF [3]: 100 MCF
- MCF [4]: 276 MCF
- MCF [5]: 14 MCF
- MCF [6]: 36 MCF
- Kapp [7]: 108 nM

Substance: FITC labeled 30.5.7 Fab
- Kd [8]: 5.8 nM
- Kd [9]: 4.8 to 6.4 nM
- Kd [10]: 12.2 nM
- Kd [11]: 4.8 nM

Substance: mAb 30.5.7 (antibody)
- fold increase of reactivity on γ-IFN treated cells (5-50 units/ml) over untreated cells [12]: 5 to 6 fold
- fold increase of mean channel fluorescence, cells at 27° C. against cells at 37° C. [13]: 5 fold
